According to the supplement of paper PMC12042874:
± gives the uncertainty stated by the source.

Assay: amyloid nucleation score (Sup35N fusion, yeast selection) (log enrichment); library NNK2; higher = more nucleation; inactive = no reads after selection
Summary of the method: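 The nucleation score is the log enrichment of output over input reads, calculated with DiMSum and centred on the mode score of non-aggregating sequences. Sequences with under 100 input reads were excluded. Reads came from Illumina sequencing of plasmid inserts from psi-negative yeast expressing Sup35N fused to peptides of 20 random codons, induced 24 hours with 100 μM copper sulfate and grown 7 days at 30°C without adenine and uracil.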

| Substance | amyloid nucleation score |
| --- | --- |
| RLMCVLMGYRGSSGVDCRSA | 0.185 ± 0.27 |
| LCSRFALWVRKF | -0.291 ± 0.63 |
| HLTEFNNRRRLGTDLAGVGN | 0.109 ± 0.33 |
| NIRNRSVNDLIRRDAYRLAL | -0.175 ± 0.8 |
| RNLDNHRTFFSFRIGLFMWS | 6.13 ± 0.077 |
| VGIGVAERCDSRWLL | 0.886 ± 0.3 |
| HKAFVAAVERWAEYLDADVS | -0.585 ± 0.63 |
| NGRETEFQFTRVDVWNFSVM | 5.065 ± 0.046 |
| LHTLVALINACRNASGSVHD | 0.167 ± 0.65 |
| YSCMVFSLGRVMELSGHMFG | inactive |
| HNVYMVFYFAFFSPFMIRYI | 3.44 ± 0.088 |
| YTDISCVLLGLG | -1.76 ± 0.78 |
| HCIMYSTLRHRVWSGRLDGS | 3.86 ± 0.089 |
| SKGRYAYRRMGAYLCSD | 1.48 ± 0.43 |
| MLGRVKTKVACYG | 0.409 ± 0.64 |
| YIFSILRDKSVPFDSQVSKN | -0.797 ± 1.1 |
| GMPVLV | 0.093 ± 0.26 |
| LYYTCDIHTGRWWVLLVHGV | 4.28 ± 0.11 |
| WSEVGWFIYDKFREFVFSIK | inactive |
| VSSMHFFWF | -0.378 ± 0.54 |
| LSFGIVKLVMRAFTKKVTKG | 0.388 ± 0.47 |

| Substance | amyloid nucleation score |
| --- | --- |
| IIIIATEHK | 3.48 ± 0.16 |
| CALNFCAEVARFLRMLKSLL | -0.042 ± 0.79 |
| LMVTKLSCSCFCLFSVPRSQ | 0.783 ± 0.74 |
| LSNWSPFYMLHQSISFCSRS | 3.08 ± 0.051 |
| LFRSHSCVCTLVKQ | -0.008 ± 0.46 |
| SLSDELAERNSRCTRLTPWM | 1.61 ± 0.23 |
| ENVFDCNRFY | inactive |
| LFTEISKYQVYGVYWTALFE | -0.137 ± 1.1 |
| LGFFKSGVVH | inactive |
| RFDHMSYRSCPRESEFEVTC | inactive |
| YQRMPSIYGEVVCHQSCQGV | -0.069 ± 0.45 |
| SISALLFIPAHRTIMAG | -1.69 ± 1.1 |
| RMNGRYNLCTATGLVSASWW | 0.09 ± 0.4 |
| TGGTVMRVR | 0.297 ± 0.29 |
| LTHQRRRLMMCI | 0.283 ± 0.32 |
| KFYIPSDLVLVRCPST | -0.883 ± 1.1 |
| MYYCLGILCGVSTRRGEMSC | 1.17 ± 0.41 |
| AVVDH | 0.336 ± 0.41 |
| NNAMWSWSS | -0.039 ± 0.41 |
| APRWWFYVDSY | 0.237 ± 1 |
| SARHDSRVYNWGLFMKYDVN | 4.12 ± 0.084 |

| Substance | amyloid nucleation score |
| --- | --- |
| DVKSYTITYSLSFHVMSVII | 2.72 ± 0.21 |
| QLQFMRADFFLNKVKLRGET | inactive |
| LNAYGGRCSL | 0.317 ± 0.5 |
| FGGIASMMFVEMRRGSINEM | 3.51 ± 0.045 |
| FWLSSESANYTCFKRYVG | 0.25 ± 0.47 |
| SDIYRSSRLQ | 0.179 ± 0.33 |
| GVHLYLNVYVTLKFTATGDS | 5.79 ± 0.077 |
| ARCTKINLGPYRGSINSLFW | inactive |
| ERFHIVLHMVIDDRVSFGCV | 2.96 ± 0.12 |
| FRKCI | 1.25 ± 0.38 |
| KIRASVNSSRFFWFDAS | 2.96 ± 0.13 |
| TRVLYPACVCHGRSISFGVE | 0.134 ± 0.44 |
| LSLLEGKVWLRWY | 1.2 ± 0.61 |
| LMSCRILRSAKRGHSNVKRF | 0.254 ± 0.46 |
| SRLYGLDCRILFVNFYTKLP | inactive |
| LVVLLMRWSLPLNVESGMF | -0.105 ± 1.1 |
| LLFINGHAMTGAVYTITKLT | -0.302 ± 0.36 |
| SFSVYRFVGTLSGYADLGLG | 0.302 ± 0.37 |
| FVEIIAKWILTI | 0.033 ± 0.6 |
| DSACFYENSM | -0.48 ± 0.79 |
| CSDRSICFANSYFEF | -0.101 ± 0.63 |
